From patent US20250320281A1

Tests used:
Experiment in all cases: cell-based or functional assay
[1] = molecular target: HIV-1 93UG077 envelope glycoprotein (Env) on pseudovirus (HIV-1)
[2] = molecular target: HIV-1 94UG114 envelope glycoprotein (Env) on pseudovirus (HIV-1 (isolate 94UG114, clade D))
[3] = molecular target: HIV-1 Env of isolate 92UG024 (clade D pseudovirus) (HIV-1)
[4] = molecular target: HIV-1 Env of isolate 98IN022 (clade C) (HIV-1 isolate 98IN022)
[5] = molecular target: HIV-1 Env of isolate MGRM-D-003 (clade D pseudovirus) (HIV-1)
[6] = molecular target: HIV-1 Env of isolate MGRM-D-005 (clade D pseudovirus) (HIV-1)
[7] = molecular target: HIV-1 Env of isolate MGRM-D-029 (clade D pseudovirus) (HIV-1)
[8] = molecular target: HIV-1 Env of isolate SC422661.8 (Acute), clade B, on pseudovirus (HIV-1)
[9] = molecular target: HIV-1 Env of isolate TRJ0.58 (Acute), clade B, on pseudovirus (HIV-1)
[10] = molecular target: HIV-1 Env of isolate TRO.11 (Acute), clade B, on pseudovirus (HIV-1)
[11] = molecular target: HIV-1 Env of isolate VLGCB3, clade B, on pseudovirus (HIV-1)
[12] = molecular target: HIV-1 Env of pseudovirus MGRM-AG-006 (clade CRF_AG) (HIV-1)
[13] = molecular target: HIV-1 Env of pseudovirus MGRM-AG-008 (clade CRF_AG) (HIV-1)
[14] = molecular target: HIV-1 Env of pseudovirus MGRM-Chronic-B-012 (HIV-1)
[15] = molecular target: HIV-1 envelope glycoprotein (Env) of isolate 92RW026, clade A (HIV-1)
[16] = molecular target: HIV-1 envelope glycoprotein (Env) of isolate MGRM-A-005, clade A (HIV-1)
[17] = molecular target: HIV-1 envelope glycoprotein (Env) of isolate MGRM-A-012, clade A (HIV-1)
[18] = molecular target: aMLV envelope protein on pseudovirus
[19] = molecular target: HIV-1 94UG103 Env (pseudovirus, clade A) (HIV-1)
[20] = molecular target: HIV-1 APV17 Env (pseudovirus, clade B) (HIV-1)
[21] = molecular target: HIV-1 Env of isolate 98IN022 (HIV-1)
[22] = molecular target: HIV-1 Env of isolate MGRM-AG-011 (HIV-1)
[23] = molecular target: HIV-1 Env of isolate MGRM-AG-012 (HIV-1)
[24] = molecular target: HIV-1 Env of isolate MGRM-Chronic-B-024 (subtype B pseudovirus) (HIV-1)
[25] = molecular target: HIV-1 Env of isolate MGRM-D-002 (pseudovirus) (HIV-1)
[26] = molecular target: HIV-1 Env of isolate MGRM-D-013 (pseudovirus) (HIV-1)
[27] = molecular target: HIV-1 Env of isolate MGRM-D-024 (pseudovirus) (HIV-1)
[28] = molecular target: HIV-1 Env of isolate MGRM-F1-020 (HIV-1)
[29] = molecular target: HIV-1 Env of isolate PVO.4 (subtype B pseudovirus) (HIV-1)
[30] = molecular target: HIV-1 Env of isolate THR0.18 (subtype B pseudovirus) (HIV-1)
[31] = molecular target: HIV-1 MGRM-C-026 Env (pseudovirus, clade C) (HIV-1)

1443_C16 (PG16) (TCN-116) (antibody), sequence (VH): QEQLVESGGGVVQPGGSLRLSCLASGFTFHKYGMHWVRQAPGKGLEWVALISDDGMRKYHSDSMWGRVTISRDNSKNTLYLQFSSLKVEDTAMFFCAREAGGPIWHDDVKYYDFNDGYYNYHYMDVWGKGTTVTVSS
1443_C16 (PG16) (TCN-116) (antibody), sequence (VL): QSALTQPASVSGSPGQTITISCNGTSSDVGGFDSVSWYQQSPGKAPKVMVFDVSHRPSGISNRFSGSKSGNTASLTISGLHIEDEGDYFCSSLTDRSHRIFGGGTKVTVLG

| Substance | IC50, pseudovirus neutralization [1] [µg/mL] | IC50 (µg/ml), pseudovirus neutralization [2] [µg/mL] | IC50 (µg/ml), pseudovirus neutralization [3] [µg/mL] | IC50 (µg/ml), pseudovirus neutralization [4] [µg/mL] | IC50 (µg/ml), pseudovirus neutralization [5] [µg/mL] | IC50 (µg/ml), pseudovirus neutralization [6] [µg/mL] | IC50 (µg/ml), pseudovirus neutralization [7] [µg/mL] | IC50 (µg/ml), pseudovirus neutralization [8] [µg/mL] | IC50 (µg/ml), pseudovirus neutralization [9] [µg/mL] | IC50 (µg/ml), pseudovirus neutralization [10] [µg/mL] | IC50 (µg/ml), pseudovirus neutralization [11] [µg/mL] | IC50 [12] [µg/mL] | IC50 [13] [µg/mL] | IC50 (µg/ml), pseudovirus neutralization [14] [µg/mL] | IC50 (µg/ml), pseudovirus neutralization [15] [µg/mL] | IC50 (µg/ml), pseudovirus neutralization [16] [µg/mL] | IC50 (µg/ml), pseudovirus neutralization [17] [µg/mL] | IC50, pseudovirus neutralization [18] [µg/mL] | other results |
| --- | --- | --- | --- | --- | --- | --- | --- | --- | --- | --- | --- | --- | --- | --- | --- | --- | --- | --- | --- |
| 2F5 (antibody) | 4.45 | > 50 | 0.95 | > 50 | > 50 | > 50 | > 50 | > 50 | > 50 | > 50 | > 50 | 0.85 | 0.54 | 17.6 | 8.63 | 5.7 | 2.36 | > 50 | – |
| 2G12 (antibody) | > 50 | 13.9 | 0.42 | > 50 | > 50 | 25.7 | > 50 | 0.84 | > 50 | 0.29 | 7.9 | 3.92 | > 50 | 0.22 | 17.2 | > 50 | > 50 | > 50 | – |
| 4E10 (antibody) | 11.2 | 9.72 | 2.17 | 0.53 | 2.49 | 35.2 | 5.3 | 6.35 | 11.9 | 1.39 | 5.76 | 1.76 | 1.48 | 48 | 12.9 | 4.09 | 4.27 | > 50 | – |
| 1443_C16 (PG16) (TCN-116) (antibody) | > 50 | > 50 | 24 | 0.003 | 0.01 | 19.7 | > 50 | 1.13 | 1.16 | 0.22 | 0.4 | > 50 | 0.002 | 3.74 | 0.03 | 0.09 | 20.7 | > 50 | – |
| 1495_C14 (PGC14) (antibody) | > 50 | > 50 | > 50 | 9 | > 50 | > 50 | > 50 | > 50 | > 50 | > 50 | 21 | > 50 | 45 | > 50 | > 50 | > 50 | > 50 | > 50 | – |
| 5141_B17 (PGT-126) (antibody) | 0.0256 | – | – | – | – | – | – | – | – | – | – | – | – | – | – | – | – | – | IC80 (pseudovirus neutralization) [1]: 0.102 µg/mL; IC90 (pseudovirus neutralization) [1]: 0.238 µg/mL; IC95 (pseudovirus neutralization) [1]: 0.577 µg/mL; IC50 neutralization [19]: 0.0091 µg/mL; IC50 neutralization [20]: 0.501 µg/mL; neutralization IC50 [21]: 0.279 µg/mL; IC50 [22]: 24.5 µg/mL; IC50 [23]: > 50 µg/mL; IC50 (µg/mL), pseudovirus neutralization [24]: > 50 µg/mL; IC50, pseudovirus neutralization [25]: 0.039 µg/mL; IC50, pseudovirus neutralization [26]: > 50 µg/mL; IC50, pseudovirus neutralization [27]: 0.376 µg/mL; IC50 (µg/mL), pseudovirus neutralization [28]: > 50 µg/mL; IC50 (µg/mL), pseudovirus neutralization [29]: 0.017 µg/mL; IC50 (µg/mL), pseudovirus neutralization [30]: > 50 µg/mL; IC50 neutralization [31]: 0.0076 µg/mL |
| b12 (antibody) | 41.1 | > 50 | 45.6 | 0.42 | > 50 | > 50 | > 50 | 6.11 | > 50 | > 50 | 0.15 | > 50 | > 50 | > 50 | > 50 | 3.64 | > 50 | > 50 | – |
